Laboratory results from paper PMC10872493.
Where “and” joins values, the source holds several entries; their conditions need not be identical. Equal entries are not always repeated.

Legend:
[1] = molecular target: CP α1N44C β2E84C, labeled with donor and acceptor dyes (single-molecule FRET construct) (mouse) (UniProt Q5RKN9); test: single-molecule FRET titration
[2] = molecular target: CP α1S9C β2S161C, labeled with donor and acceptor dyes (single-molecule FRET construct) (mouse) (UniProt Q5RKN9); test: single-molecule FRET titration

Substance: CKIP-1 CPI-motif peptide
- Kd [1]: 10 nM and 11 nM

Substance: WASHCAP CPI-motif peptide
- Kd [2]: 1.4 nM
